In patent EP1508806A1:
Each block holds one substance with its values, some of them ahead of it.

Legend:
[1] = target: rIRS-1 449-664 S612A GST fusion protein, pretreated with PKC-ζ and then tyrosine phosphorylated by insulin receptor (rat) (UniProt P35570); test: GST pull-down, anti-p85α immunoblot quantified; relative to the insulin-stimulated control value set as 100%
[2] = target: rIRS-1 449-664 S570A GST fusion protein, pretreated with PKC-ζ and then tyrosine phosphorylated by insulin receptor (rat) (UniProt P35570); test: as above
[3] = target: rIRS-1 449-664 GST fusion protein, pretreated with PKC from rat brain and then tyrosine phosphorylated by insulin receptor (rat) (UniProt P35570); test: GST pull-down, anti-p85α immunoblot quantified; against the insulin-stimulated value without PKC-rb set as 100%
[4] = target: rIRS-1 449-664 GST fusion protein, pretreated with PKC-ζ and then tyrosine phosphorylated by insulin receptor (rat) (UniProt P35570); test: GST pull-down, anti-p85α immunoblot quantified; against the insulin-stimulated value without PKC-ζ set as 100%
[5] = target: regulatory p85α subunit of bovine PI 3-kinase (recombinant, GST part removed with thrombin) (bovine) (UniProt P23727); test: SPR competition: soluble peptide against the same peptide immobilised, 100 nM p85α
UniProt P23727, sequence (P23727 whole entry, the tested form may be a part): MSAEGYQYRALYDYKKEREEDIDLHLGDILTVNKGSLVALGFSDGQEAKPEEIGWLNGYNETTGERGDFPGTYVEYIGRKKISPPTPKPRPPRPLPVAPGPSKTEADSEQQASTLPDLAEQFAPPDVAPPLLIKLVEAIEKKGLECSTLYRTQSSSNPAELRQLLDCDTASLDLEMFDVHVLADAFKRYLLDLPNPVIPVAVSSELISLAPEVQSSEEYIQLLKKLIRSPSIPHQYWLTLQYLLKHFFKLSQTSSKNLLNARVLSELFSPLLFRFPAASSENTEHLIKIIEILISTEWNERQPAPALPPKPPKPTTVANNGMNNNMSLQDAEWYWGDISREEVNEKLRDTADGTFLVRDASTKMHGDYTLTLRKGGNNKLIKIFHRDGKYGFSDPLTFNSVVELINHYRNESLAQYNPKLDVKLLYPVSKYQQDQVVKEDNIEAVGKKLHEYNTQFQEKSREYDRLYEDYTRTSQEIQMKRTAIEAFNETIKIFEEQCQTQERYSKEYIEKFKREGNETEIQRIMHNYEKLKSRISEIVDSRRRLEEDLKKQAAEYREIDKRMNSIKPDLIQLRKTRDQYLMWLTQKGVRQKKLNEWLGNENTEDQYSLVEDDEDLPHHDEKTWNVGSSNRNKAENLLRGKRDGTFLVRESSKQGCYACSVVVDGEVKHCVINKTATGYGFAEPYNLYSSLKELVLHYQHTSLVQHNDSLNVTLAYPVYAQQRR

[6] = target: GST fusion protein containing amino acids 449-664 of rat IRS-1 (rIRS-1 449-664), not phosphorylated (rat) (UniProt P35570); test: cell-based or functional assay
[7] = target: rIRS-1 449-664 GST fusion protein, phosphorylated in vitro by PKC-ζ (rat) (UniProt P35570); test: cell-based or functional assay
[8] = target: rIRS-1 449-664 S570A GST fusion protein, pretreated with PKC-ζ (rat) (UniProt P35570); test: cell-based or functional assay
[9] = target: rIRS-1 449-664 S612A GST fusion protein, pretreated with PKC-ζ (rat) (UniProt P35570); test: cell-based or functional assay
[10] = target: rIRS-1 449-664 GST fusion protein, phosphorylated in vitro by PKC from rat brain (rat) (UniProt P35570); test: cell-based or functional assay

p85α binding, percent of control [1]: 28%
p85α binding, percent of control [2]: 43%
percent inhibition of the association of p85α [3]: 49%
percent inhibition of p85α binding [4]: 81%
Substance: regulatory p85α subunit of bovine PI 3-kinase (recombinant, GST part removed with thrombin) (from UniProt P23727 1-724)

peptide concentration for complete inhibition [5]: 10 µM
Substance: IRS-1 peptide pY608-pS612, DDGpYMPMpSPGV (amino acids 605 to 615 of rat IRS-1, phosphotyrosine 608 and phosphoserine 612)

insulin-stimulated tyrosine phosphorylation of rIRS-1^449-664 (anti-phosphotyrosine immunoblot) [6]: 8.8 fold
inhibition of tyrosine phosphorylation of rIRS-1^449-664 after PKC-ζ pretreatment [7]: 46%
reduction of tyrosine phosphorylation by IR after PKC-ζ pretreatment [7]: 30 to 40%
reduction of tyrosine phosphorylation by IR after PKC-ζ pretreatment [8]: 30 to 40%
reduction of tyrosine phosphorylation by IR after PKC-ζ pretreatment [9]: 30 to 40%
reduction of insulin-stimulated Tyr-phosphorylation of rIRS-1^449-664 after PKC-rb pretreatment [10]: 27%
Substance: insulin receptor, WGA-purified from rat liver, insulin-stimulated and autophosphorylated (from UniProt P15127 27-1383)

peptide concentration for complete inhibition [5]: 10 µM
Substance: IRS-1 peptide pY608, DDGpYMPMSPGV (amino acids 605 to 615 of rat IRS-1, phosphotyrosine 608)
